Read-outs that look alike come from different tables or passages of the source.
Columns and labels:
[1] = biological target: T1, tetanus neurotoxin (TeNT), authentic tetanus holotoxin (Clostridium tetani, UniProt P04958 2-1315); assay: competition ELISA on TeNT, binder biotinylated; competitor SVT03L
Target sequence in this assay (P04958 2-457 limits assumed, chain 1 of 2): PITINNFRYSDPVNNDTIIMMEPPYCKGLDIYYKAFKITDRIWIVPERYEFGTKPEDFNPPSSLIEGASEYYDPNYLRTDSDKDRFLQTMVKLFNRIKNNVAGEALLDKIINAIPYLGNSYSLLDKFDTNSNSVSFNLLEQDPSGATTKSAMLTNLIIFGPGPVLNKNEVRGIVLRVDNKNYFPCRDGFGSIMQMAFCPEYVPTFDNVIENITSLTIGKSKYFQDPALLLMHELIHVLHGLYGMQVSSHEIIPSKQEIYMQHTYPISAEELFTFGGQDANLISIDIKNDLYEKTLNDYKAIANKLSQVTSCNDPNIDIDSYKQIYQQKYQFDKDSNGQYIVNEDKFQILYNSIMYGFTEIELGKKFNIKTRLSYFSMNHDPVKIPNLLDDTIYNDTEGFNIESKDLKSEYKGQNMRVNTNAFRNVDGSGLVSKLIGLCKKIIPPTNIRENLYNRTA
Target sequence in this assay (P04958 458-1315 limits assumed, chain 2 of 2): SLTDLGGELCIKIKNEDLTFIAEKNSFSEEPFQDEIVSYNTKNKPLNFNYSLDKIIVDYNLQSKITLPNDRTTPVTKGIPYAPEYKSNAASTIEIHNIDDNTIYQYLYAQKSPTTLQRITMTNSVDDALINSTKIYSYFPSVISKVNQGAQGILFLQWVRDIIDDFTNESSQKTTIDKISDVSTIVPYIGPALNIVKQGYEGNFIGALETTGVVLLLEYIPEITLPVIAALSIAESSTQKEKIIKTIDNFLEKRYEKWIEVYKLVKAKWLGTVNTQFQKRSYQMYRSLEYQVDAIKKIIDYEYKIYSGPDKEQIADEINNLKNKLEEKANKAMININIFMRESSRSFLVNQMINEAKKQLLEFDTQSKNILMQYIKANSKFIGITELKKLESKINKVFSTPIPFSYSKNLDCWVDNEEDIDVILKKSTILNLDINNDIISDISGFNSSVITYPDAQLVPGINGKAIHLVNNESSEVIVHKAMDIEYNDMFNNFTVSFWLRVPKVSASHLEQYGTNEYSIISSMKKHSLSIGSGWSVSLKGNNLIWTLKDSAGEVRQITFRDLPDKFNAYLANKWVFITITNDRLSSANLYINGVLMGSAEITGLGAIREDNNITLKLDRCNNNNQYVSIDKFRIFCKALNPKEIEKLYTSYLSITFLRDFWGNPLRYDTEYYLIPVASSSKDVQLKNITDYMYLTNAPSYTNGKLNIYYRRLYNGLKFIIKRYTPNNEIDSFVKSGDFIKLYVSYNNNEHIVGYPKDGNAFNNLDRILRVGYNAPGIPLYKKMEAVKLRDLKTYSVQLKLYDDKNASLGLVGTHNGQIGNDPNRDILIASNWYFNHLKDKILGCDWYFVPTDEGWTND

[2] = biological target: T1, tetanus neurotoxin (TeNT), authentic …; assay: competition ELISA on TeNT, binder biotinylated; competitor mAb 6F57
Target sequence in this assay (P04958 2-457 limits assumed, chain 1 of 2): as the sequence (P04958 2-457 limits assumed, chain 1 of 2) above
Target sequence in this assay (P04958 458-1315 limits assumed, chain 2 of 2): as the sequence (P04958 458-1315 limits assumed, chain 2 of 2) above

[3] = biological target: T1, tetanus neurotoxin (TeNT), authentic …; assay: competition ELISA on TeNT, binder biotinylated; competitor SVT15L-3FW4M
Target sequence in this assay (P04958 2-457 limits assumed, chain 1 of 2): as the sequence (P04958 2-457 limits assumed, chain 1 of 2) above
Target sequence in this assay (P04958 458-1315 limits assumed, chain 2 of 2): as the sequence (P04958 458-1315 limits assumed, chain 2 of 2) above

[4] = biological target: T1, tetanus neurotoxin (TeNT), authentic …; assay: competition ELISA on TeNT, binder biotinylated; competitor SVT15L
Target sequence in this assay (P04958 2-457 limits assumed, chain 1 of 2): as the sequence (P04958 2-457 limits assumed, chain 1 of 2) above
Target sequence in this assay (P04958 458-1315 limits assumed, chain 2 of 2): as the sequence (P04958 458-1315 limits assumed, chain 2 of 2) above

[5] = biological target: T2, recombinant tetanus toxin fragment C (rTTC) (Clostridium tetani, UniProt P04958 865-1315); assay: ELISA, rTTC captured with coated mAb 6E7
T2 sequence: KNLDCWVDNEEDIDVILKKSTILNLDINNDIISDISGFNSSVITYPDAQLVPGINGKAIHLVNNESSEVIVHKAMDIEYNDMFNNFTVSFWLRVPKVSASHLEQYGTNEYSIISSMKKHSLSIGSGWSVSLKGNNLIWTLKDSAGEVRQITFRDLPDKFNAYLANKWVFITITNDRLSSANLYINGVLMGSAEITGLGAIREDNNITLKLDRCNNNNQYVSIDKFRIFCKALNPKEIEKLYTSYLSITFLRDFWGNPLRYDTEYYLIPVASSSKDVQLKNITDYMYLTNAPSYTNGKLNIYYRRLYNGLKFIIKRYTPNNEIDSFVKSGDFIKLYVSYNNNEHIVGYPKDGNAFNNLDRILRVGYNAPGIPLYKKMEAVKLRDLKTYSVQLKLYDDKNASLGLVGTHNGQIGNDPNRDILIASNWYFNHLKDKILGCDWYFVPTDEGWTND

[6] = biological target: T1, tetanus neurotoxin (TeNT), authentic …; assay: ELISA, TeNT captured with cAb-TT2, biotinylated binder
Target sequence in this assay (P04958 2-457 limits assumed, chain 1 of 2): as the sequence (P04958 2-457 limits assumed, chain 1 of 2) above
Target sequence in this assay (P04958 458-1315 limits assumed, chain 2 of 2): as the sequence (P04958 458-1315 limits assumed, chain 2 of 2) above

[7] = biological target: T1, tetanus neurotoxin (TeNT), authentic …; assay: competition ELISA on TeNT, binder biotinylated; competitor SVT34L
Target sequence in this assay (P04958 2-457 limits assumed, chain 1 of 2): as the sequence (P04958 2-457 limits assumed, chain 1 of 2) above
Target sequence in this assay (P04958 458-1315 limits assumed, chain 2 of 2): as the sequence (P04958 458-1315 limits assumed, chain 2 of 2) above

[8] = biological target: T1, tetanus neurotoxin (TeNT), authentic …; assay: competition ELISA on TeNT, binder biotinylated; competitor SVT22L
[9] = biological target: T1, tetanus neurotoxin (TeNT), authentic …; assay: ELISA, directly coated TeNT, unlabelled binder
[10] = biological target: T2, recombinant tetanus toxin fragment C …; assay: ELISA, directly coated rTTC, unlabelled binder
[11] = biological target: T2, recombinant tetanus toxin fragment C …; assay: ELISA, directly coated rTTC
[12] = biological target: T1, tetanus neurotoxin (TeNT), authentic …; assay: ELISA, TeNT captured with cAb-TT2, unlabelled binder
[13] = biological target: T1, tetanus neurotoxin (TeNT), authentic …; assay: competition ELISA on TeNT, binder biotinylated; competitor SVT13L
[14] = biological target: T1, tetanus neurotoxin (TeNT), authentic …; assay: competition ELISA on TeNT, binder biotinylated; competitor SVT16L
[15] = biological target: T1, tetanus neurotoxin (TeNT), authentic …; assay: competition ELISA on TeNT, binder biotinylated; competitor mAb 14F5
[16] = biological target: T1, tetanus neurotoxin (TeNT), authentic …; assay: competition ELISA on TeNT, binder biotinylated; competitor SVT08L
[17] = biological target: T1, tetanus neurotoxin (TeNT), authentic …; assay: competition ELISA on TeNT, binder biotinylated; competitor mAb 6E7
[18] = biological target: T1, tetanus neurotoxin (TeNT), authentic …; assay: competition ELISA on TeNT, binder biotinylated; competitor SVT02L
[19] = biological target: T1, tetanus neurotoxin (TeNT), authentic …; assay: ELISA, TeNT captured with coated mAb 6E7
[20] = biological target: T1, tetanus neurotoxin (TeNT), authentic …; assay: GT1b-TeNT inhibition ELISA, unlabelled binder
[21] = biological target: T1, tetanus neurotoxin (TeNT), authentic …; assay: competition ELISA on TeNT, binder biotinylated; competitor mAb 11n185
[22] = biological target: T1, tetanus neurotoxin (TeNT), authentic …; assay: GT1b-TeNT inhibition ELISA, EC at A450 0.59
[23] = biological target: T1, tetanus neurotoxin (TeNT), authentic …; assay: ELISA, directly coated TeNT
[24] = biological target: T1, tetanus neurotoxin (TeNT), authentic …; assay: competition ELISA on TeNT, binder biotinylated; competitor SVT06L
[25] = biological target: T1, tetanus neurotoxin (TeNT), authentic …; assay: ELISA, directly coated TeNT, biotinylated binder
[26] = biological target: T3, tetanus neurotoxin (TeNT), authentic tetanus holotoxin (Clostridium tetani, UniProt P04958 2-1315); assay: BLI (Octet Red96): biotinylated TeNT on SA sensor, SDA as analyte
[27] = biological target: T3, tetanus neurotoxin (TeNT), authentic …
[28] = biological target: T3, tetanus neurotoxin (TeNT), authentic …; assay: cell-based or functional assay
Target sequence in this assay (P04958 2-457 limits assumed): as the sequence (P04958 2-457 limits assumed, chain 1 of 2) above

[29] = biological target: T3, tetanus neurotoxin (TeNT), authentic …; assay: BLI (Octet Red96); estimate of the footnote with kdis set to 1.0E-07
Target sequence in this assay (P04958 2-457 limits assumed): as the sequence (P04958 2-457 limits assumed, chain 1 of 2) above

dog serum albumin = biological target: T4, dog serum albumin (dog, UniProt P49822 25-608); assay: BLI, biotinylated SDA on SA sensors
T4 construct: mature; also called dog Alb; Canine albumin

horse serum albumin = biological target: T5, horse serum albumin (horse, UniProt P35747 25-607); assay: BLI, biotinylated albumin on SA sensors
T5 construct: mature; also called horse Alb; Equine albumin

human serum albumin = biological target: T6, human serum albumin (human, UniProt P02768 25-609); assay: BLI, biotinylated albumin on SA sensors
T6 construct: mature; also called human Alb

[30] = biological target: T3, tetanus neurotoxin (TeNT), authentic …; assay: BLI (Octet Red96); estimate of the footnote with kdis set to 1.0E-07; avidity
[31] = biological target: T3, tetanus neurotoxin (TeNT), authentic …; assay: BLI (Octet Red96); avidity (bivalent for TeNT); format for this SDA not told

T5 sequence (P35747 25-607): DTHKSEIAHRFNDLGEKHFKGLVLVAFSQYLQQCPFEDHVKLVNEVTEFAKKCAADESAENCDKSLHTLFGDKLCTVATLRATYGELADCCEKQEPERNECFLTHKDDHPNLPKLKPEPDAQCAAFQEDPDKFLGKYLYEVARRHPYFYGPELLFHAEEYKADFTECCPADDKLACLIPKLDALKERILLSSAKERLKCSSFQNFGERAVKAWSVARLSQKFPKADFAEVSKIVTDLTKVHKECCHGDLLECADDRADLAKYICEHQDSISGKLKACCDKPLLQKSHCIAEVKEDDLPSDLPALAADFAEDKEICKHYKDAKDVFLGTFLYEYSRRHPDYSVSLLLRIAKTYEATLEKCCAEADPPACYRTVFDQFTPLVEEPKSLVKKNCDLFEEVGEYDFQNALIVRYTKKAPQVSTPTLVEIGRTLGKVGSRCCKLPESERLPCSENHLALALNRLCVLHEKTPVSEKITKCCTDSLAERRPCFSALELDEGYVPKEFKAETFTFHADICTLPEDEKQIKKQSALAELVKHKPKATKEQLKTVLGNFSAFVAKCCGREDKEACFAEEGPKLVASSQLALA
T4 sequence (P49822 25-608): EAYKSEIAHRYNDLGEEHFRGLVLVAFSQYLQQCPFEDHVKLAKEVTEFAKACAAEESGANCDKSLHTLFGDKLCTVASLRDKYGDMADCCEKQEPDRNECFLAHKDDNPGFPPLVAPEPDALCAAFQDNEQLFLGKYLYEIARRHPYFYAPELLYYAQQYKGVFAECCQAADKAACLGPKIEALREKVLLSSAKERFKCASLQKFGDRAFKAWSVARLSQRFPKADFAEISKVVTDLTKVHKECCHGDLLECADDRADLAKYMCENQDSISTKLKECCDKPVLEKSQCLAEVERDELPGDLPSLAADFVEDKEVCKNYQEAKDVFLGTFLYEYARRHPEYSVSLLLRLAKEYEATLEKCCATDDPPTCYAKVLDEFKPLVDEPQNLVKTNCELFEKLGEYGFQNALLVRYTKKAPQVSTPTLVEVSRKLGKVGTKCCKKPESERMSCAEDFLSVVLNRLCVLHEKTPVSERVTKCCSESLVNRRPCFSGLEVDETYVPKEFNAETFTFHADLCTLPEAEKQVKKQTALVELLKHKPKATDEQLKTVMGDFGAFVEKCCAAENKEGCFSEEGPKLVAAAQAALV

B1: SVT02L (VHH)
VHH: QVQLQQSGGGSVQAGGSLRLSCVGPQRTFSTYGMGWFRQAPGKEREFVAGINYKGDTTYYADSVKGRFTISRDNAKNTLYLQMDSLKPEDRAVYQCARKGGLGGDYRDAGQYRYWGQGTQVTVSS
- % inhibition of binding [1]: 9%
- % inhibition of binding [2]: 19%
- % inhibition of binding [3]: 12%
- % inhibition of binding [4]: 6%
- absorbance at 450 nm [5]: 0.062
- EC resulting in A450 0.2 [6]: 11 ng/mL
- maximal absorbance at 450 nm [6]: 0.53
- % inhibition of binding [7]: -16%
- % inhibition of binding [8]: 3%
- EC resulting in A450 0.2 [9]: > 1000 ng/mL
- maximal absorbance at 450 nm [9]: 0.077
- maximal absorbance at 450 nm [10]: 0.057
- binding result [11]: no binding (tested: A450 above 0.2 counts as binding)
- EC resulting in A450 0.15 [12]: 36 ng/mL
- maximal absorbance at 450 nm [12]: 0.196
- % inhibition of binding [13]: 21%
- % inhibition of binding [14]: 26%
- % inhibition of binding [15]: 97%
- % inhibition of binding [16]: 16%
- % inhibition of binding [17]: 8%
- % inhibition of binding [18]: 96%
- absorbance at 450 nm [19]: 1.19
- minimal absorbance at 450 nm [20]: 0.576
- % inhibition of binding [21]: 19%
- concentration giving A450 of 0.59 [22]: > 1 µg/mL
- absorbance at 450 nm [23]: 0.062
- % inhibition of binding [24]: 2%
- EC resulting in A450 0.4 [25]: > 1000 ng/mL
- maximal absorbance at 450 nm [25]: 0.191

B2: SVT03L (VHH)
VHH: QVQLQQSGGGSVQTGDSLTLSCTASGGSLNSYFVGWFRQSGGKEREFVSVIARTGRSTSYADSVKGRFTISRDNAANTVFLTMNNLRPDDTAIYYCAAVGRPGVLHLTQSYDYWGQGTQVTVSS
- koff [26]: < 1e-07 s⁻¹
- kon [26]: 5.65e+06 M⁻¹ s⁻¹
- Kd [27]: < 1 pM
- Endpoint dilution factor [28]: < 1
- SDA concentration providing full protection [28]: > 1000 nM
- Kd [29]: ~0.0177 pM

B3: SVT03L (VHH)
VHH: B2 VHH
- % inhibition of binding [1]: 97%
- % inhibition of binding [2]: 17%
- % inhibition of binding [3]: 10%
- % inhibition of binding [4]: 12%
- absorbance at 450 nm [5]: 0.061
- EC resulting in A450 0.2 [6]: 2.8 ng/mL
- maximal absorbance at 450 nm [6]: 0.493
- % inhibition of binding [7]: -4%
- % inhibition of binding [8]: 10%
- EC resulting in A450 0.2 [9]: > 1000 ng/mL
- maximal absorbance at 450 nm [9]: 0.104
- maximal absorbance at 450 nm [10]: 0.053
- binding result [11]: no binding (tested: A450 above 0.2 counts as binding)
- EC resulting in A450 0.15 [12]: 1.9 ng/mL
- maximal absorbance at 450 nm [12]: 0.304
- % inhibition of binding [13]: 23%
- % inhibition of binding [14]: 18%
- % inhibition of binding [15]: -8%
- % inhibition of binding [16]: 10%
- % inhibition of binding [17]: -12%
- % inhibition of binding [18]: 10%
- absorbance at 450 nm [19]: 1.32
- minimal absorbance at 450 nm [20]: 0.903
- % inhibition of binding [21]: -26%
- concentration giving A450 of 0.59 [22]: > 1 µg/mL
- absorbance at 450 nm [23]: 0.331
- % inhibition of binding [24]: 10%
- EC resulting in A450 0.4 [25]: > 1000 ng/mL
- maximal absorbance at 450 nm [25]: 0.233

B4: SVT15-3FW4M-GS3-SVT06-GS2-SVG13M5-H6 (bispecific antibody)
chain: QVQLQESGGGLVQTGGSLRLSCRASGRAFANYHFGWFRQAPGKDREFVASISWKGGSTYYANFALGRFTSSVDRAESSVYLQMSGLTPEDTATYYCAAHDGGDWNYHTGMDYWGQGTQVTVSSGGGGSGGGGSGGGGSQVQLQESGGGSVQAGGSLRLSCTASELSYDDYTIAWFRRAAGEGRVEDGEGVASITKSYDRAYDNKINYGHSVKGRFTISRDNAKNTVYLQMTDLLPSDTAVYYCALDITPPGGVGASLTEGFLFDYWGQGTQVTVSSGGGGSGGGSEVQLVESGGGLVQPGGSLRLSCEASGFTFDDYGMSWVRQAPGKGLEWVSSLTPNGGSTYYADSVKGRFTISRDNAKNTLYLQMNSLKPEDTALYYCAKNSYYGAMDYRGQGTQVTVSSHHHHHH
- binding result (dog serum albumin): no binding (tested: 500 nM)
- binding result (horse serum albumin): no binding (tested: 100 nM)
- binding result (human serum albumin): no binding (tested: 100 nM)

B5: SVT06-GS3-SVT15-3FW4M-GS2-SVG06M4-H6 (bispecific antibody)
chain: QVQLQESGGGSVQAGGSLRLSCTASELSYDDYTIAWFRRAAGEGRVEDGEGVASITKSYDRAYDNKINYGHSVKGRFTISRDNAKNTVYLQMTDLLPSDTAVYYCALDITPPGGVGASLTEGFLFDYWGQGTQVTVSSGGGGSGGGGSGGGGSQVQLQESGGGLVQTGGSLRLSCRASGRAFANYHFGWFRQAPGKDREFVASISWKGGSTYYANFALGRFTSSVDRAESSVYLQMSGLTPEDTATYYCAAHDGGDWNYHTGMDYWGQGTQVTVSSGGGGSGGGSEVQLVESGGALVQPGGSLRLSCAASGFPFSAYDMTWVRQAPGQGLEWVSTIHKSGGITTYADSVKGRFTISRDNAKNTLYLQMNNLESEDTAVYYCAKALRAHNSDYVGRNALGSWGQGTQVTVSSHHHHHH
- Kd [30]: ~1.45 pM
- Kd [27]: < 1 pM
- koff [31]: < 1e-07 s⁻¹
- kon [31]: 69100 M⁻¹ s⁻¹
